Assay results taken from patent US20240158512A1 (TRUEBINDING, published 2024).

Assays:
Galectin-3 [1] = biological target: T1, Galectin-3 (UniProt P17931 1-250, limits assumed); assay: BLI; after 25 C for 3 months
T1 construct: Target of the anti-Gal3 antibody TB006; also called Gal3; GAL3

Galectin-3 [2] = biological target: T1, Galectin-3; assay: BLI; after 4 C for 12 months

T1 sequence (P17931 whole entry): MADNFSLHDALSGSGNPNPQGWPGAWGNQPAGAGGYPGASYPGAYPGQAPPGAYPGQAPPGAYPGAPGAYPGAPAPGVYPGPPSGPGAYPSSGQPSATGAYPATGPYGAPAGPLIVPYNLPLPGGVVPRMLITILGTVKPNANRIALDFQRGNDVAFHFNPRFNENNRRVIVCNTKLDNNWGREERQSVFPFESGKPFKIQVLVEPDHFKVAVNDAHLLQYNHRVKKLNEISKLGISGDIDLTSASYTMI

B1: TB006 (antibody, human IgG4 S228P, kappa, V domains shown)
VH: QVQLVQSGAEVKKPGASVKVSCKASGYSFTNYYMHWVRQAPGQRLEWMGWIYPGSGNTNYNEKFQGRVTITADTSASTAYMELSSLRSEDTAVYYCSTAPGGFDVWGQGTTVTVSS
VL: DIVMTQTPLSLSVTPGQPASISCKSSKSLLHSDGITYLYWYLQKPGQSPQLLIYRMSNLASGVPDRFSGSGSGTDFTLKISRVEAEDVGVYYCAQMLEFPLTFGQGTKLEIKR
notes: Tested as formulated drug substance or drug product in 20 mM L-histidine, 5 mM methionine, 100 mM NaCl, 0.02% polysorbate 80, pH 5.8, or diluted in 0.9% saline; also called 4A11.H3L1; IMT006a
Kd (Galectin-3 [1]): 3.3 nM
Kd (Galectin-3 [2]): 3.9 nM
